Assay results from PMC3651084.

Biological target: recombinant human HER3-Fc chimera (UniProt P21860)
Test: flow cytometry on staphylococcal-displayed mutants
Details: parent: est. 83; read off a plot

Sequence of UniProt P21860 (P21860 20-643, change not shown): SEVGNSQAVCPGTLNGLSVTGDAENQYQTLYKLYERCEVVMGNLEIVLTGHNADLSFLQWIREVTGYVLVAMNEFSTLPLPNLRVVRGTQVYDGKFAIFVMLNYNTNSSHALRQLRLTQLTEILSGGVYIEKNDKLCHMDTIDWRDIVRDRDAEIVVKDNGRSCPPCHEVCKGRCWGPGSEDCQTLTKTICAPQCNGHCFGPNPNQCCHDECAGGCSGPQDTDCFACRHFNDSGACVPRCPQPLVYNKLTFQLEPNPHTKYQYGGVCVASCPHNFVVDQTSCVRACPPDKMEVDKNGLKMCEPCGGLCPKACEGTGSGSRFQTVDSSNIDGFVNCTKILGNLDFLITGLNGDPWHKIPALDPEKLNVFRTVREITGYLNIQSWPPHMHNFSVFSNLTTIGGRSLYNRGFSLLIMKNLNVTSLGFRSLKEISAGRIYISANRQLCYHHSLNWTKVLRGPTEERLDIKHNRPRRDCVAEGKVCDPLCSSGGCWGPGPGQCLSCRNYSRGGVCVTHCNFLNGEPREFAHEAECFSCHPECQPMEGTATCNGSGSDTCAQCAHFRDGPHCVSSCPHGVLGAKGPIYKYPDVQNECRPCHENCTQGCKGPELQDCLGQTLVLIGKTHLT

| response | Substance |
| --- | --- |
| 93 | HER3-binding Affibody molecule Z05416, displayed on S. carnosus S32A |
| 71 | HER3-binding Affibody molecule Z05416, displayed on S. carnosus Q18A |
| 78 | HER3-binding Affibody molecule Z05416, displayed on S. carnosus V24A |
| 10 | HER3-binding Affibody molecule Z05416, displayed on S. carnosus Y10A |
| 86 | HER3-binding Affibody molecule Z05416, displayed on S. carnosus T11A |
| 92 | HER3-binding Affibody molecule Z05416, displayed on S. carnosus Q35A |
| 91 | HER3-binding Affibody molecule Z05416, displayed on S. carnosus R25A |
| 87 | HER3-binding Affibody molecule Z05416, displayed on S. carnosus A28L |
| 72 | HER3-binding Affibody molecule Z05416, displayed on S. carnosus F14A |
| 10 | HER3-binding Affibody molecule Z05416, displayed on S. carnosus W17A |
| 43 | HER3-binding Affibody molecule Z05416, displayed on S. carnosus K9A |
| 100 | HER3-binding Affibody molecule Z05416, displayed on S. carnosus K27A |
| 66 | HER3-binding Affibody molecule Z05416, displayed on S. carnosus Y13A |
